Laboratory results taken from US20160130315A1 (AJOU UNIVERSITY INDUSTRY ACADEMIC COOPERATION FOUNDATION, published 2016).

Target: T1, Fc (human, UniProt P01857-1 104-330 = IgG part, limits assumed)
T1 construct: domain: Fc (hinge-CH2-CH3); Control without TPP; also called control group Fc; antibody heavy-chain constant region
Experiment: FACS on cells carrying neuropilin-1 and -2

binding result: no binding (tested: 1 µM)
B1: neuropilin-2 expressed on cell surface (receptor, human, UniProt O60462 21-931, looked up)
chain: RGQPDPPCGGRLNSKDAGYITSPGYPQDYPSHQNCEWIVYAPEPNQKIVLNFNPHFEIEKHDCKYDFIEIRDGDSESADLLGKHCGNIAPPTIISSGSMLYIKFTSDYARQGAGFSLRYEIFKTGSEDCSKNFTSPNGTIESPGFPEKYPHNLDCTFTILAKPKMEIILQFLIFDLEHDPLQVGEGDCKYDWLDIWDGIPHVGPLIGKYCGTKTPSELRSSTGILSLTFHTDMAVAKDGFSARYYLVHQEPLENFQCNVPLGMESGRIANEQISASSTYSDGRWTPQQSRLHGDDNGWTPNLDSNKEYLQVDLRFLTMLTAIATQGAISRETQNGYYVKSYKLEVSTNGEDWMVYRHGKNHKVFQANNDATEVVLNKLHAPLLTRFVRIRPQTWHSGIALRLELFGCRVTDAPCSNMLGMLSGLIADSQISASSTQEYLWSPSAARLVSSRSGWFPRIPQAQPGEEWLQVDLGTPKTVKGVIIQGARGGDSITAVEARAFVRKFKVSYSLNGKDWEYIQDPRTQQPKLFEGNMHYDTPDIRRFDPIPAQYVRVYPERWSPAGIGMRLEVLGCDWTDSKPTVETLGPTVKSEETTTPYPTEEEATECGENCSFEDDKDLQLPSGFNCNFDFLEEPCGWMYDHAKWLRTTWASSSSPNDRTFPDDRNFLRLQSDSQREGQYARLISPPVHLPRSPVCMEFQYQATGGRGVALQVVREASQESKLLWVIREDQGGEWKHGRIILPSYDMEYQIVFEGVIGKGRSGEIAIDDIRISTDVPLENCMEPISAFAGENFKVDIPEIHEREGYEDEIDDEYEVDWSNSSSATSGSGAPSTDKEKSWLYTLDPILITIIAMSSLGVLLGATCAGLLLYCTCSYSGLSSRSCTTLENYNFELYDGLKHKVKMNHQKCCSEA
notes: whole, on cells; Endogenous expression; the same cells also carry neuropilin-1; also called NRP2
